Data reported in the nanobody polyreactivity screen of Harvey et al. (2022).

Assay: yeast display, Sf9 membrane polyspecificity reagent, FACS + sequencing; frameworks hold sequencing errors
Procedure, shortened: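 Genes from sorted yeast were amplified by colony PCR, read by MiSeq 2 × 250 sequencing and filtered on CDR length. These cells carried a synthetic nanobody library in Saccharomyces cerevisiae BJ5465 and were sorted by FACS into low and high (top ~1%) gates on anti-HA and streptavidin fluorescence. Polyreactivity is labelled according to the gate of origin.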

| Sequence | polyreactivity (PSR sort gate) |
| --- | --- |
| QVQLVESGGGFVQAGGSLRLSCAASGRIFRIYAMGWYRQAPGKERELVAAITYRGGSTNYADSVKGRFTISRDNAKNTVYVQINSLKPEDTAVYDCAARSVYYGYTGYSYWGPGTQVTVSS | high polyreactivity |
| QVQLVESGGGFVQAGGSLRLSCAASGRIFRLYAMGWYRQAPGKEREFVAAITFSGGRTYYADSVKGRFTISRDNAKNNVYLQMNSLKPEDTAVYYCAARGQTGYYSGVGYWGQGTQVTVSS | high polyreactivity |
| QVQLVESGGGFVQAGGSLRLSCAASGSIFYYNAMGWYRQAPGKERELVAAIDWSGGITYYADSVKGRFTISRDNAKNTVYLQMNSLKPEDTAVYYCNVPMPPAKAEYGYWGQGTQVTVSS | high polyreactivity |
| QVQLVESGGGFVQAGGSLRLSCAASGSTFHDYVMGWYRQAPGKERELVATIRRGASTYYADSVKGRFTISRDNEKNTVYLQMNSLIPEDTAVYYCAVPATGGYFSSEYDYWGQGTQVTVSS | low polyreactivity |
| QVQLVESGGGFVQAGGSLRLSCAASVIFGYYAMGWYSQAPGKERELVAAINWRGDSTYYADSVKGRFTISRDNAKNTVYLQMNSLKPEDTAVYYCAAQRRDIALLYDYWGQGTQVTLSS | low polyreactivity |
| QVQLVESGGGFVQAGGSLRLSCAASVSILWWYAMGWSRKATVKERELVAAITWSGTSTYYADSVKGRFTISRVNGKNTLYLQMISLKPEETAVYYCAVRSYVNGGWYDYWGQGTQGTVSS | high polyreactivity |
| QVQLVESGGGFVQAGGSLRLTCAASGYIFANYGMGWYRQAPGKQMELVAAISGSGGSTYYADSVKGRFTISRDNAKNTVYLQMNSLKPQDTAVYYCAALSNWWSYFTCYDGSDGFDYWVQGTQVTVSS | low polyreactivity |
| QVQLVESGGGFVQAGGSLRVSCAASGSIFRPDAMGWYRPAPGKERELVAAITWSGGRTYYADSVKGRFTISRDNAKNTVDLQMNSLKPEDTAVYYCAARPRYYYWFKSGTRVEYDYWGQGTQVTVSS | high polyreactivity |
| QVQLVESGGGFVQAGGTLRLSCAASGFTFGYNAMGWYRHAPGKERELVAAISFSDGITYYADSVKRRFTISRDNAKNNVYLQMNSLKPEDTAVYYCAADLYFEYEYWGQGTQVTVSS | high polyreactivity |
| QVQLVESGGGFVQAVGSLRLSCAASGSTFPRYVLGWYRQAPGTARELVAAITWRGSTNDADSVKGRFTISRDNAKNTVYLQMNSLKPEDSAVYYCAAAFFARDRKRYNYWGQGTQVTVSS | high polyreactivity |
| QVQLVESGGGIDQAGGSLRLRCAASGSIFAYYAMGWYRQAPGKERELVAAISWNGGRTYYADSVKGRFTISRDNAKNTVYLQMNSLKPEDTAVYYCNAVRWAIYDYWGQGTQVTLSS | high polyreactivity |
| QVQLVESGGGIVHEGGSLRLSCAASGSIFFGYAMGWYRLAPGKELELVAAISASGGLTFYADSLKGRFTISRDNAKNTVYLQMNSLKPEDPAVYYCAKRGRSTYGYDYWGQGTQVTVSS | high polyreactivity |
| QVQLVESGGGIVQAGASLRLSCSASGFTQYPYTMGWNRHAPGKESELVAAITSSGATTYYADSVKGRFTISRDNAKNTVYLQMNRLKTEVTAVYYCAAGRAAAFGYLGQGTQVTVSS | high polyreactivity |
| QVQLVESGGGIVQAGCSLRLSCAASGSIFSHNAKVGYRQAPGKERELVAAITKGGGRTYYADSVKGRFTISRDNAKNTVYLQMNSLKPEDNAVYYCATAGAHGRERDYWGQGTQVTVSS | high polyreactivity |
| QVQLVESGGGIVQAGGILRLSCAASGRTLHYSAMVWYRQAPRIERELVAAISARGGRTYYADSVKGRYTISLDNAKNTVYLQMTSLKPEDTAVYYCAAAGYITGSDRYDYWGQGTLVTVSS | high polyreactivity |
| QVQLVESGGGIVQAGGRLRLSCAASGRIFYYNAMGWYRQAPGQERELVAVISRNGGRTYYADSVKGRFTISRDNAKNTVSFQMNSLKPEDTAVYYCAARSAGDRYDYWGQGTQVTVSS | high polyreactivity |
| QVQLVESGGGIVQAGGRLRLSCAASGSIFLQYTMGWYRQAPGKERELVAAITESDGSTYYADSVKGRFTISRDNAKNTVYLQMNSLKPEDTAVYYCAADVVYFKYWDKYDYWGQGTQVTLSS | low polyreactivity |
| QVQLVESGGGIVQAGGRLRLSCAASGYIFDIYAMGWNRQAPGKERELDADITRSGGGTYYADSVKGRFTISRDNAKNTVYLQMNSLKPEDTAVYYCAAESYVYGGSDYDYWGQGTQVTVSS | low polyreactivity |
| QVQLVESGGGIVQAGGSHRLSCAASGRIFGVNAMGWYRQATGKERELVAAISVSGDSTYYADSVKGRFTISRDNAKNTVYLQMNSLKPEDTAVYYCNAGYTFVPADLTDEYYWGQGTQVTVSS | low polyreactivity |
| QVQLVESGGGIVQAGGSHRLSCAASGRTFYRYAMGWYRQAPGTERELVAAITRRSGNTYYADSVKGRFTISRDNAKNNVYLQMISLKPEDTAVYYCAADPETWSPHYESLGYYWGQGTQVTVSS | high polyreactivity |
| QVQLVESGGGIVQAGGSLRLICAASGSIFSSYVMGWYRQAPGKERELVAAITSRGGSTYYADSVKGRFTISRDNAKNTVYLQMNSLKPEDTAVYYCAKGGTTWYWSGYRSIYFRYDYWGQGTQVTVSS | high polyreactivity |
| QVQLVESGGGIVQAGGSLRLRCAASGSTFYVYHMGWDRPAPGKERELVAAISSGAGSTYYADSVKGRFTISRDNAKNTVYLQMNSLKRKIPRSITALLFTVNGGGSRSHDYWAQGTQVTVSS | low polyreactivity |

| Sequence | polyreactivity (PSR sort gate) |
| --- | --- |
| QVQLVESGGGIVQAGGSLRLRWAASGLTSVRNAMGWYRQAPGKERELVAGISWSGGRTYYADSVKGRFTISRDNEKNTVYLQMNSLKPEDTGVYYCNKVRAYYTQEGSWGQGTQVTVSS | high polyreactivity |
| QVQLVESGGGIVQAGGSLRLSCAASGFICGHYTMGWYRQAPGKERELVAAITTGGRTYYADSVKGRFTISRDNGKNTVYLQMISLKPEDTAVYYCAARGYIWGQGTPVTVSS | high polyreactivity |
| QVQLVESGGGIVQAGGSLRLSCAASGFIFDSYAMGWYRQAPGKERELVAAITTSGGRTYYADSVKGRFTISRDNAKNTVYLQMNSLKPEDTAVYYCAAKYTARWGFDYWGQGTQVTVSS | high polyreactivity |
| QVQLVESGGGIVQAGGSLRLSCAASGFIFPDYGMGWYRQAPGKERELVAAISRNGVSTYYADSVKGRFTISRDNAKNTVYLQMNSLKPEDTAVYYCAARYYRIRRVSKSGYYWGQGTQVTVSS | low polyreactivity |
| QVQLVESGGGIVQAGGSLRLSCAASGFIFSYYVMGWYRQAPGKEREFVAAITYSGTYTYYADSVKGRFTISRDNAKNTVYLQMNSLKPEDTAVYYCAAYSPRYNAHDYWGQGTQVTVSS | high polyreactivity |
| QVQLVESGGGIVQAGGSLRLSCAASGFNFSLYAMGWYRQAPGKERELVAVIDRRGGNTYYADSVKGRFTISRDNAKNTVYLQMNSLKPEDTAVYSCAADRRFHYDYWGQGTQVTVSS | high polyreactivity |
| QVQLVESGGGIVQAGGSLRLSCAASGFTFAYYAMGWYRQAPGKERELVAAITRGGGRTFYADSVKGRFTISRDNAKNTVYLQMNSLKPEDTAVYYCAAVKDTTNSRGYGYWGQGTHVTVSS | high polyreactivity |
| QVQLVESGGGIVQAGGSLRLSCAASGFTFGYYARGWYRQAPGKERELVAAISSRVGRTYYADSVKGRFTISRDNAKNTDYLQMNSLKPEDTAVYYCNTVGKTQWYYYWGQGTQVTVAS | high polyreactivity |
| QVQLVESGGGIVQAGGSLRLSCAASGFTFSNNVMGGYRQAPGKERELVAAITWSGDGTYYADSVKGRFTISRDNAKNTVYLQMNSLKPEDTAVYYCNARYGKEYDYWGQGTQVTVSS | low polyreactivity |
| QVQLVESGGGIVQAGGSLRLSCAASGFTFSRYTMGWFRPAPGQERELVAAINRRGGSTYYADSVKGRFTISRDNAKHTVYLQLNSVKPADTAVYYCAATYTVRSGNGIANDYWGQGTQVTVSS | high polyreactivity |
| QVQLVESGGGIVQAGGSLRLSCAASGFTFTYNTKGWYRQEPGKERELVAAISRSGGSTYYADSVKGRFTISRDNAKNTVYLQLNSLKPEDSAVYYCAKQRRDDNGGYWGLGTQVTVSS | high polyreactivity |
| QVQLVESGGGIVQAGGSLRLSCAASGFTFWSYAMGWYRPAPGKERELVAAISRGGSTSYADSVKGRFTISRDNAKNTVYLQLNSLKPEDTAVYYCAVVRARAYVYHGFYWGQGTQVTVSS | high polyreactivity |
| QVQLVESGGGIVQAGGSLRLSCAASGFTLYYYAMGWYRQAPGKERELVAAITSSGTSTYYADSVKGRFTISRDNAKNTVYVQMNSLKPEDTAVYYCAAVSKIYHYRAVRLDDYWGQGTQVTVSS | low polyreactivity |
| QVQLVESGGGIVQAGGSLRLSCAASGFTYDENAMGWYRQAPGINYSGASTYYAESVKGRFTISRDNAKNTVYLQMNSLKPEDTAVYYCAAEVVAQMNYWGQGTQVTVSS | low polyreactivity |
| QVQLVESGGGIVQAGGSLRLSCAASGFTYWFYAMGWYRQAPGKERELVAAISRGGSTYYADSVKGRFTFSRDKAKNTVYLQMNSLKPEDTAVYYCAADFVHRGYYYWGQGTQVTVSS | high polyreactivity |
| QVQLVESGGGIVQAGGSLRLSCAASGGIFFIYTMGWYRQAPGKERELVAAITSTGDTNYADSVKGRFTISRDNAKNTVYLQMNSLKPEDTAVYYCNKDYGTRGKGYDYWGQGTQVTVSS | low polyreactivity |
| QVQLVESGGGIVQAGGSLRLSCAASGGTFNRYAMGWYRQAPGKERELVAAISNGGGRTYYADSVKGRFTISRDNAKNTVYLQMNSLKPEDNSVYYCAKDLTRTSYRSAFDYWGQGTQVTVSS | high polyreactivity |
| QVQLVESGGGIVQAGGSLRLSCAASGGTFSRNAMGWYRQAPGKERELVAAINSSGVSTSYADSVKGRFTISRDNEKNTVYLQMNSLKPEDTAVYYCAAETSSAEVDYWGQGTQVTVSS | low polyreactivity |
| QVQLVESGGGIVQAGGSLRLSCAASGIIFPVYAMGWYRQAPGKERELVAAISRSGGSTYYADSVKGRFTISRDNAKNNVYLQMNSLKPEDTAVYYCAARYVVGYSLSSYGYWGQGTQVTVSS | high polyreactivity |
| QVQLVESGGGIVQAGGSLRLSCAASGIIFTGNAMGWYIQAPGKERELVAAITSGDTTNYADSVKGRFTISRDNAKNTVYLQMNSLKPEDTAVYYCAKELQVRQAGDYWGQGTQVTVSS | low polyreactivity |
| QVQLVESGGGIVQAGGSLRLSCAASGIIIDGNAMGWYRQAPGKERELVAAISSRGGSTYYADSVKGRFTISRDYAKNTVYLQMNSLKPEDTAVYYCAAKVRHYYSASNYYYWGQGTQVTVSS | high polyreactivity |
